In paper PMC10397247:
Each block holds one binder with its values, some of them ahead of it.

Assays:
[1] = target: T1, 4H2253-bH; test: two-hybrid library CCNG1;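 note: natural log of median RNA to DNA barcode read ratio; higher means stronger binding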
T1 chain: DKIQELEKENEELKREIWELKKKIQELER

[2] = target: T2, 4H235-bH; test: two-hybrid library CCNG1;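 note: natural log of median RNA to DNA barcode read ratio; higher means stronger binding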
T2 chain: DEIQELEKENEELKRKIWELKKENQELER

[3] = target: T3, 4H2444-bH; test: two-hybrid library CCNG1;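 note: natural log of median RNA to DNA barcode read ratio; higher means stronger binding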
T3 chain: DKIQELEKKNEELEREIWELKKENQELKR

[4] = target: T4, 4H2518-bH; test: two-hybrid library CCNG1;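 note: natural log of median RNA to DNA barcode read ratio; higher means stronger binding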
T4 chain: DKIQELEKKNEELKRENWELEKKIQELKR

[5] = target: T5, 4H2585-bH; test: two-hybrid library CCNG1;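 note: natural log of median RNA to DNA barcode read ratio; higher means stronger binding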
T5 chain: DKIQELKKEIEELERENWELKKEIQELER

[6] = target: T6, 4H264-bH; test: two-hybrid library CCNG1;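 note: natural log of median RNA to DNA barcode read ratio; higher means stronger binding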
T6 chain: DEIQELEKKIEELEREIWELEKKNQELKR

[7] = target: T7, 4H2760-bH; test: two-hybrid library CCNG1
T7 chain: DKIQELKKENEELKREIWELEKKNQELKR

[8] = target: T8, 4H2859-bH; test: two-hybrid library CCNG1
T8 chain: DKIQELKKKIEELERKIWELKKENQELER

[9] = target: T9, 4H2931-bH; test: two-hybrid library CCNG1
T9 chain: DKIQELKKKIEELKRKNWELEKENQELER

[10] = target: T10, 4H3041-bH; test: two-hybrid library CCNG1
T10 chain: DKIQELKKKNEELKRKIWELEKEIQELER

[11] = target: T11, 4H3297-bH; test: two-hybrid library CCNG1
T11 chain: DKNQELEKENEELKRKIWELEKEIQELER

[12] = target: T12, 4H3364-bH; test: two-hybrid library CCNG1
T12 chain: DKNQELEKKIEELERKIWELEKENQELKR

[13] = target: T13, 4H3381-bH; test: two-hybrid library CCNG1
T13 chain: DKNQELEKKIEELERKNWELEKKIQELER

[14] = target: T14, 4H349-bH; test: two-hybrid library CCNG1
T14 chain: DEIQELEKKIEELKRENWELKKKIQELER

[15] = target: T15, 4H56-bH; test: two-hybrid library CCNG1
T15 chain: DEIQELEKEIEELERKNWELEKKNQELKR

[16] = target: T16, 4H730-bH; test: two-hybrid library CCNG1
T16 chain: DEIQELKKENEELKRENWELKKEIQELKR

[17] = target: T17, 4H796-bH; test: two-hybrid library CCNG1
T17 chain: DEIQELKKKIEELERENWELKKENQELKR

[18] = target: T18, 4H932-bH; test: two-hybrid library CCNG1
T18 chain: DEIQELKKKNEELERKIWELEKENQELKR

[19] = target: T19, 4H949-bH; test: two-hybrid library CCNG1
T19 chain: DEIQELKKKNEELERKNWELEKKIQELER

[20] = target: T20, P12A-bP; test: two-hybrid library CCNG1
T20 chain: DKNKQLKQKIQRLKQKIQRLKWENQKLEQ

[21] = target: T21, P7A-bP; test: two-hybrid library CCNG1
T21 chain: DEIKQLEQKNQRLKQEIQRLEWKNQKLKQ

[22] = target: T22, P1A-bP; test: two-hybrid library CCNG1
T22 chain: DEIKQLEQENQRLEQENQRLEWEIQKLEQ

[23] = target: T23, P2A-bP; test: two-hybrid library CCNG1
T23 chain: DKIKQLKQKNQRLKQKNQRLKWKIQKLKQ

[24] = target: T24, P3A-bP; test: two-hybrid library CCNG1
T24 chain: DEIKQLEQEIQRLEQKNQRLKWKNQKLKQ

[25] = target: T25, P4A-bP; test: two-hybrid library CCNG1
T25 chain: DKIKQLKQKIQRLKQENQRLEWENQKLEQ

[26] = target: T26, P5A-bP; test: two-hybrid library CCNG1
T26 chain: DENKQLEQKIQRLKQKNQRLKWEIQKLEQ

[27] = target: T27, P6A-bP; test: two-hybrid library CCNG1
T27 chain: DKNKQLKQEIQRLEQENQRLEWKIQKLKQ

[28] = target: T28, P8A-bP; test: two-hybrid library CCNG1
T28 chain: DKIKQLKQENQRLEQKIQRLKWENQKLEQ

[29] = target: T29, P9A-bP; test: two-hybrid library CCNG1
T29 chain: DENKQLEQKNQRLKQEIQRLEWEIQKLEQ

[30] = target: T30, 4H1198-AA; test: two-hybrid library CCmax
T30 chain: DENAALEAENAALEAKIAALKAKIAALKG

[31] = target: T31, 4H1350-AA; test: two-hybrid library CCmax; details: mean of both orientations
T31 chain: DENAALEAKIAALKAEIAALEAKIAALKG

[32] = target: T32, 4H1405-AA; test: two-hybrid library CCmax; details: mean of both orientations
T32 chain: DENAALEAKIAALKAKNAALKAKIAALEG

[33] = target: T33, 4H2211-AA; test: two-hybrid library CCmax; details: mean of both orientations
T33 chain: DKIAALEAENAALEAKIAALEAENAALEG

[34] = target: T34, 4H2238-AA; test: two-hybrid library CCmax; details: mean of both orientations
T34 chain: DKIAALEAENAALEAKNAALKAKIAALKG

[35] = target: T35, 4H2513-AA; test: two-hybrid library CCmax; details: mean of both orientations
T35 chain: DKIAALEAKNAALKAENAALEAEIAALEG

[36] = target: T36, 4H2536-AA; test: two-hybrid library CCmax; details: mean of both orientations
T36 chain: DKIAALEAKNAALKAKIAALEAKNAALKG

[37] = target: T37, 4H2608-AA; test: two-hybrid library CCmax; details: mean of both orientations
T37 chain: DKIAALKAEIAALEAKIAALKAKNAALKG

[38] = target: T38, 4H2614-AA; test: two-hybrid library CCmax; details: mean of both orientations
T38 chain: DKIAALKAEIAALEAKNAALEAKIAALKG

[39] = target: T39, 4H2726-AA; test: two-hybrid library CCmax; details: mean of both orientations
T39 chain: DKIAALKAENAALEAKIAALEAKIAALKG

[40] = target: T40, 4H2935-AA; test: two-hybrid library CCmax; details: mean of both orientations
T40 chain: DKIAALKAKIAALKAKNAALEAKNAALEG

[41] = target: T41, 4H327-AA; test: two-hybrid library CCmax; details: mean of both orientations
T41 chain: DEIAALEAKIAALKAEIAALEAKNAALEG

[42] = target: T42, 4H341-AA; test: two-hybrid library CCmax
T42 chain: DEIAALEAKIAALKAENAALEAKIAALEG

[43] = target: T43, 4H3605-AA; test: two-hybrid library CCmax; details: mean of both orientations
T43 chain: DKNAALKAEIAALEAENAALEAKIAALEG

[44] = target: T44, 4H3625-AA; test: two-hybrid library CCmax; details: mean of both orientations
T44 chain: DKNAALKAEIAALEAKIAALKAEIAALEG

[45] = target: T45, 4H3664-AA; test: two-hybrid library CCmax; details: mean of both orientations
T45 chain: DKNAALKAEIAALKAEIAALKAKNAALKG

[46] = target: T46, 4H369-AA; test: two-hybrid library CCmax
T46 chain: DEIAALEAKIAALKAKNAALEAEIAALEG

[47] = target: T47, 4H3922-AA; test: two-hybrid library CCmax; details: mean of both orientations
T47 chain: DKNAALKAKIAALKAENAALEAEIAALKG

[48] = target: T48, 4H4033-AA; test: two-hybrid library CCmax; details: mean of both orientations
T48 chain: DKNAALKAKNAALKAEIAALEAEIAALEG

[49] = target: T49, 4H481-AA; test: two-hybrid library CCmax; details: mean of both orientations
T49 chain: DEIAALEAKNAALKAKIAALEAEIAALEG

[50] = target: T50, 4H55-AA; test: two-hybrid library CCmax; details: mean of both orientations
T50 chain: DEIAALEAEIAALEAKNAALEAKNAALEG

[51] = target: T51, 4H662-AA; test: two-hybrid library CCmax; details: mean of both orientations
T51 chain: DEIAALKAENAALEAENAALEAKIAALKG

[52] = target: T52, 4H1710-AA; test: two-hybrid library CCmax
T52 chain: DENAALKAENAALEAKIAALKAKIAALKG

[53] = target: T53, 4H1985-AA; test: two-hybrid library CCmax; details: mean of both orientations
T53 chain: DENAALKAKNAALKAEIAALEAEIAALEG

[54] = target: T54, 4H2187-AA; test: two-hybrid library CCmax
T54 chain: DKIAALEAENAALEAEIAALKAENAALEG

[55] = target: T55, 4H233-AA; test: two-hybrid library CCmax; details: mean of both orientations
T55 chain: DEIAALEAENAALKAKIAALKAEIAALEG

[56] = target: T56, 4H2512-AA; test: two-hybrid library CCmax; details: mean of both orientations
T56 chain: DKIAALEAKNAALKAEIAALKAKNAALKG

[57] = target: T57, 4H2646-AA; test: two-hybrid library CCmax; details: mean of both orientations
T57 chain: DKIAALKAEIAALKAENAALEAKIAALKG

[58] = target: T58, 4H2687-AA; test: two-hybrid library CCmax; details: mean of both orientations
T58 chain: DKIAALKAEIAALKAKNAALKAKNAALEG

[59] = target: T59, 4H2705-AA; test: two-hybrid library CCmax; details: mean of both orientations
T59 chain: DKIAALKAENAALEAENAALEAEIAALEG

[60] = target: T60, 4H2758-AA; test: two-hybrid library CCmax; details: mean of both orientations
T60 chain: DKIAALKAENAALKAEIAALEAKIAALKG

[61] = target: T61, 4H278-AA; test: two-hybrid library CCmax; details: mean of both orientations
T61 chain: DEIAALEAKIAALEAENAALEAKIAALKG

[62] = target: T62, 4H2873-AA; test: two-hybrid library CCmax; details: mean of both orientations
T62 chain: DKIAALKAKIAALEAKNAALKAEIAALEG

[63] = target: T63, 4H2985-AA; test: two-hybrid library CCmax; details: mean of both orientations
T63 chain: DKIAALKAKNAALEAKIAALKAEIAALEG

[64] = target: T64, 4H3134-AA; test: two-hybrid library CCmax; details: mean of both orientations
T64 chain: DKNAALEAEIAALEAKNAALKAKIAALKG

[65] = target: T65, 4H3409-AA; test: two-hybrid library CCmax; details: mean of both orientations
T65 chain: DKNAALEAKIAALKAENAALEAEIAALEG

[66] = target: T66, 4H390-AA; test: two-hybrid library CCmax; details: mean of both orientations
T66 chain: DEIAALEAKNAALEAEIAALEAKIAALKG

[67] = target: T67, 4H3940-AA; test: two-hybrid library CCmax; details: mean of both orientations
T67 chain: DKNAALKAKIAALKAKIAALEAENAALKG

[68] = target: T68, 4H510-AA; test: two-hybrid library CCmax; details: mean of both orientations
T68 chain: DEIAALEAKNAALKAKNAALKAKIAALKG

[69] = target: T69, 4H775-AA; test: two-hybrid library CCmax; details: mean of both orientations
T69 chain: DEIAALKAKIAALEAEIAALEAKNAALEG

[70] = target: T70, 4H816-AA; test: two-hybrid library CCmax; details: mean of both orientations
T70 chain: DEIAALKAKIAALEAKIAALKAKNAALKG

[71] = target: T71, 4H87-AA; test: two-hybrid library CCmax; details: mean of both orientations
T71 chain: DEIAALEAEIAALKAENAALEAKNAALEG

interaction score [1]: 0.888
interaction score [2]: 0.172
interaction score [3]: -0.045
interaction score [4]: 0.157
interaction score [5]: -1.52
interaction score [6]: 0.653
interaction score [7]: 0.899
interaction score [8]: 0.651
interaction score [9]: -0.195
interaction score [10]: 0.872
interaction score [11]: 0.617
interaction score [12]: 0.0509
interaction score [13]: 0.131
interaction score [14]: -0.0717
interaction score [15]: -2.53
interaction score [16]: -0.37
interaction score [17]: -0.124
interaction score [18]: -0.937
interaction score [19]: -0.427
interaction score [20]: -0.712
interaction score [21]: -1.72
Binder: DKIQELEKENEELKREIWELKKKIQELER [4H2253-bH]

interaction score [20]: -1.39
interaction score [22]: -0.938
interaction score [23]: -1.47
interaction score [24]: 1.06
interaction score [25]: -1.3
interaction score [26]: -1.95
interaction score [27]: -1.09
interaction score [21]: -1.24
interaction score [28]: -1.36
interaction score [29]: -0.693
Binder: DKNKQLKQKIQRLKQKIQRLKWENQKLEQ [P12A-bP]

interaction score [30]: -0.611
interaction score [31]: 0.496
interaction score [32]: -0.758
interaction score [33]: -1.3
interaction score [34]: -0.785
interaction score [35]: 1.14
interaction score [36]: -0.886
interaction score [37]: 0.869
interaction score [38]: -0.463
interaction score [39]: -0.438
interaction score [40]: -1.5
interaction score [41]: -0.574
interaction score [42]: -2.13
interaction score [43]: 0.0472
interaction score [44]: -0.0176
interaction score [45]: 1.22
interaction score [46]: -1.45
interaction score [47]: 0.661
interaction score [48]: 2.18
interaction score [49]: 1.9
interaction score [50]: -0.467
interaction score [51]: -1.15
Binder: DENAALEAENAALEAKIAALKAKIAALKG [4H1198-AA]

interaction score [52]: -0.109
interaction score [53]: 2.15
interaction score [54]: -0.907
interaction score [55]: 1.63
interaction score [56]: -0.967
interaction score [57]: -1.37
interaction score [58]: -1.29
interaction score [59]: -0.626
interaction score [60]: 1.82
interaction score [61]: -0.799
interaction score [62]: -0.937
interaction score [63]: 0.52
interaction score [64]: -0.882
interaction score [65]: -0.675
interaction score [44]: -0.181
interaction score [66]: 1.21
interaction score [67]: -0.657
interaction score [68]: -0.836
interaction score [69]: -0.259
interaction score [70]: -0.912
interaction score [71]: -1.16
Binder: DENAALKAENAALEAKIAALKAKIAALKG [4H1710-AA]
